Source: publication PMC10980815, “Cell surface patching via CXCR4-targeted nanothreads for cancer metastasis inhibition” (Nature Communications, 2024)
Ends that are not written are not given here. HPMA copolymer = HPMA copolymer made by RAFT copolymerization of HPMA with N-(3-aminopropyl)methacrylamide (APMA), bearing maleimide groups for grafting

Experiment: Pharmacokinetics at each cycle of a four-round treatment regimen
Assay type: in vivo, female mice
Parameters: PK curves: unit not given here

Substance “P-CM2-Cy3: Cy3-labeled P-CM2 (C(HPMA copolymer)YGGEVSALEKEVSALEKKNSALEKEVSALEKEVSALEK; also: Cy3 label on conjugate, position not given here)” has a PK curves (Round 1, Time 0.041667 Day, replicate 1) of 163.747, a PK curves (Round 1, Time 0.041667 Day, replicate 2) of 180.755 and a PK curves (Round 1, Time 0.041667 Day, replicate 3) of 215.82. For the same substance, the PK curves (Round 1, Time 0.041667 Day, replicate 4) was 227.965, the PK curves (Round 1, Time 0.041667 Day, replicate 5) was 272.14 and the PK curves (Round 1, Time 0.083333 Day, replicate 1) was 152.881. The PK curves (Round 1, Time 0.083333 Day, replicate 2) was 155.096, the PK curves (Round 1, Time 0.083333 Day, replicate 3) was 158.378 and the PK curves (Round 1, Time 0.083333 Day, replicate 4) was 173.813. The PK curves (Round 1, Time 0.083333 Day, replicate 5) was 181.609, the PK curves (Round 1, Time 0.166667 Day, replicate 1) was 117.124 and the PK curves (Round 1, Time 0.166667 Day, replicate 2) was 133.5. It also gave a PK curves (Round 1, Time 0.166667 Day, replicate 3) of 138.292, a PK curves (Round 1, Time 0.166667 Day, replicate 4) of 141.138 and a PK curves (Round 1, Time 0.166667 Day, replicate 5) of 149.467. For the same substance, the PK curves (Round 1, Time 0.25 Day, replicate 1) was 99.512, the PK curves (Round 1, Time 0.25 Day, replicate 2) was 115.311 and the PK curves (Round 1, Time 0.25 Day, replicate 3) was 115.69. For the same substance, the PK curves (Round 1, Time 0.25 Day, replicate 4) was 124.268, the PK curves (Round 1, Time 0.25 Day, replicate 5) was 126.538 and the PK curves (Round 1, Time 0.333333 Day, replicate 1) was 72.638. It also gave a PK curves (Round 1, Time 0.333333 Day, replicate 2) of 80.332, a PK curves (Round 1, Time 0.333333 Day, replicate 3) of 81.864 and a PK curves (Round 1, Time 0.333333 Day, replicate 4) of 87.045. For the same substance, the PK curves (Round 1, Time 0.333333 Day, replicate 5) was 96.736, the PK curves (Round 1, Time 0.5 Day, replicate 1) was 53.965 and the PK curves (Round 1, Time 0.5 Day, replicate 2) was 58.639. The PK curves (Round 1, Time 0.5 Day, replicate 3) was 59.336, the PK curves (Round 1, Time 0.5 Day, replicate 4) was 66.884 and the PK curves (Round 1, Time 0.5 Day, replicate 5) was 78.186. The PK curves (Round 1, Time 1 Day, replicate 1) was 21.997, the PK curves (Round 1, Time 1 Day, replicate 2) was 25.01 and the PK curves (Round 1, Time 1 Day, replicate 3) was 29.67. The PK curves (Round 1, Time 1 Day, replicate 4) was 31.811, the PK curves (Round 1, Time 1 Day, replicate 5) was 36.626 and the PK curves (Round 1, Time 2 Day, replicate 1) was 11.902. It also gave a PK curves (Round 1, Time 2 Day, replicate 2) of 17.163, a PK curves (Round 1, Time 2 Day, replicate 3) of 19.932 and a PK curves (Round 1, Time 2 Day, replicate 4) of 21.481. It also gave a PK curves (Round 1, Time 2 Day, replicate 5) of 24.221, a PK curves (Round 1, Time 3 Day, replicate 1) of 3.355 and a PK curves (Round 1, Time 3 Day, replicate 2) of 5.764. The PK curves (Round 1, Time 3 Day, replicate 3) was 7.718, the PK curves (Round 1, Time 3 Day, replicate 4) was 11.103 and the PK curves (Round 1, Time 3 Day, replicate 5) was 11.877. For the same substance, the AUC0-t (Round 1, same) was 2910.449 ± 479.173 ng·h/mL, the “AUC0-∞” value (Round 1, same) was 3143.497 ± 607.036 ng·h/mL and the MRT0-t (Round 1, same) was 17.874 ± 1.409 h. The “MRT0-∞” value (Round 1, same) was 23.669 ± 4.167 h, the T1/2z (Round 1 of four-round Nanothread-1→Nanothread-2 regimen, blood fluorescence, DAS 2.0, mean ± SD, n = 5) was 19.104 ± 3.483 h and the PK curves (Round 2, Time 0.041667 Day, replicate 1) was 166.289. The PK curves (Round 2, Time 0.041667 Day, replicate 2) was 169.535, the PK curves (Round 2, Time 0.041667 Day, replicate 3) was 192.765 and the PK curves (Round 2, Time 0.041667 Day, replicate 4) was 283.095. For the same substance, the PK curves (Round 2, Time 0.041667 Day, replicate 5) was 308.888, the PK curves (Round 2, Time 0.083333 Day, replicate 1) was 129.263 and the PK curves (Round 2, Time 0.083333 Day, replicate 2) was 143.311. It also gave a PK curves (Round 2, Time 0.083333 Day, replicate 3) of 159.105, a PK curves (Round 2, Time 0.083333 Day, replicate 4) of 167.258 and a PK curves (Round 2, Time 0.083333 Day, replicate 5) of 213.448. For the same substance, the PK curves (Round 2, Time 0.166667 Day, replicate 1) was 118.029, the PK curves (Round 2, Time 0.166667 Day, replicate 2) was 120.594 and the PK curves (Round 2, Time 0.166667 Day, replicate 3) was 139.935. It also gave a PK curves (Round 2, Time 0.166667 Day, replicate 4) of 140.364, a PK curves (Round 2, Time 0.166667 Day, replicate 5) of 140.694 and a PK curves (Round 2, Time 0.25 Day, replicate 1) of 88.6458. It also gave a PK curves (Round 2, Time 0.25 Day, replicate 2) of 101.112, a PK curves (Round 2, Time 0.25 Day, replicate 3) of 104.483 and a PK curves (Round 2, Time 0.25 Day, replicate 4) of 106.877. It also gave a PK curves (Round 2, Time 0.25 Day, replicate 5) of 110.672, a PK curves (Round 2, Time 0.333333 Day, replicate 1) of 69.5736 and a PK curves (Round 2, Time 0.333333 Day, replicate 2) of 78.4476. It also gave a PK curves (Round 2, Time 0.333333 Day, replicate 3) of 88.3019, a PK curves (Round 2, Time 0.333333 Day, replicate 4) of 89.2405 and a PK curves (Round 2, Time 0.333333 Day, replicate 5) of 90.1636. The PK curves (Round 2, Time 0.5 Day, replicate 1) was 43.1833, the PK curves (Round 2, Time 0.5 Day, replicate 2) was 45.6973 and the PK curves (Round 2, Time 0.5 Day, replicate 3) was 51.9942. It also gave a PK curves (Round 2, Time 0.5 Day, replicate 4) of 68.9589, a PK curves (Round 2, Time 0.5 Day, replicate 5) of 80.0862 and a PK curves (Round 2, Time 1 Day, replicate 1) of 16.0352. The PK curves (Round 2, Time 1 Day, replicate 2) was 27.0822, the PK curves (Round 2, Time 1 Day, replicate 3) was 31.0181 and the PK curves (Round 2, Time 1 Day, replicate 4) was 36.116. The PK curves (Round 2, Time 1 Day, replicate 5) was 40.972, the PK curves (Round 2, Time 2 Day, replicate 1) was 12.4543 and the PK curves (Round 2, Time 2 Day, replicate 2) was 13.9537. It also gave a PK curves (Round 2, Time 2 Day, replicate 3) of 16.9804, a PK curves (Round 2, Time 2 Day, replicate 4) of 22.3399 and a PK curves (Round 2, Time 2 Day, replicate 5) of 24.6061. The PK curves (Round 2, Time 3 Day, replicate 1) was 4.968, the PK curves (Round 2, Time 3 Day, replicate 2) was 5.058 and the PK curves (Round 2, Time 3 Day, replicate 3) was 5.667. For the same substance, the PK curves (Round 2, Time 3 Day, replicate 4) was 9.298, the PK curves (Round 2, Time 3 Day, replicate 5) was 13.6533 and the AUC0-t (Round 2, same) was 2845.842 ± 670.957 ng·h/mL. The “AUC0-∞” value (Round 2, same) was 3070.777 ± 804.281 ng·h/mL, the MRT0-t (Round 2, same) was 17.76 ± 1.068 h and the “MRT0-∞” value (Round 2, same) was 23.374 ± 3.332 h. For the same substance, the T1/2z (Round 2, same) was 18.965 ± 3.022 h.
